Measurements from US20180320179A1, “LANOSTEROL 14-ALPHA DEMETHYLASE (CYP51) NUCLEIC ACID MOLECULES THAT CONTROL PATHOGENS” (Dow AgroSciences LLC, priority 2017, published 2018).

Test system: Zymoseptoria tritici (SEPTTR-184)
Assay: Cyp51 dsRNA tile (fragment) foliar application bioassay (Example 6)
Format: in vivo
Conditions: for ED50 (ppm) SEPTTR-184 1DP / ED80 (ppm) SEPTTR-184 1DP / Disease Control (%) SEPTTR-184 1DP: 1 day protectant; for ED50 (ppm) SEPTTR-184 1DP / ED80 (ppm) SEPTTR-184 1DP / ED50 (ppm) SEPTTR-184 3DC / ED80 (ppm) SEPTTR-184 3DC: calculated from disease control; for Disease Control (%) SEPTTR-184 1DP / Disease Control (%) SEPTTR-184 3DC: average of 2 trials; for ED50 (ppm) SEPTTR-184 3DC / ED80 (ppm) SEPTTR-184 3DC / Disease Control (%) SEPTTR-184 3DC: 3 days curative
Description: The 200 ppm concentration for each treatment was prepared by adding the calculated volume of the corresponding dsRNA solution in TE buffer. […] A non-target dsRNA control (YFP), a TE/phosphate buffer control, disease pressure control, and clean plant control were included.
These plants were inoculated with an aqueous spore suspension of Zymoseptoria tritici either prior to or after fungicidal treatments. After inoculation the plants were kept in 100% relative humidity to allow spores to germinate and infect the leaves. The plants were then transferred to a greenhouse set at 20° C. until disease developed.

| Molecule | ED50 (ppm) SEPTTR-184 1DP [ppm] | ED80 (ppm) SEPTTR-184 1DP [ppm] | Disease Control (%) SEPTTR-184 1DP (rate 3.125 ppm) [%] | Disease Control (%) SEPTTR-184 1DP (rate 12.5 ppm) [%] | Disease Control (%) SEPTTR-184 1DP (rate 50 ppm) [%] | Disease Control (%) SEPTTR-184 1DP (rate 200 ppm) [%] | ED50 (ppm) SEPTTR-184 3DC [ppm] | ED80 (ppm) SEPTTR-184 3DC [ppm] | Disease Control (%) SEPTTR-184 3DC (rate 3.125 ppm) [%] | Disease Control (%) SEPTTR-184 3DC (rate 12.5 ppm) [%] | Disease Control (%) SEPTTR-184 3DC (rate 50 ppm) [%] | Disease Control (%) SEPTTR-184 3DC (rate 200 ppm) [%] |
| --- | --- | --- | --- | --- | --- | --- | --- | --- | --- | --- | --- | --- |
| MgCyp51-T3: dsRNA tile of Zymoseptoria tritici Cyp51, 230 bp, location 450-679 (nucleic acid, listed as Zymoseptoria tritici) CGTCAAGTACGGCCTCACAACCTCTGCCCTCCAGTCCTACGTGACCTTGATCGCCGCCGAGACCCGCCAGTTCTTCGACCGCAACAACCCTCATAAGAAGTTCGCATCGACCAGCGGCACGATCGATCTCCCACCAGCCCTCGCCGAACTTACGATCTATACTGCCAGCCGATCATTGCAAGGAAAGGAAGTCCGCGAGGGCTTCGACTCGTCTTTCGCGGACCTCTACC | <3.125 | >200 | 64 | 72 | 69 | 74 | <3.125 | >200 | 73 | 73 | 72 | 76 |
| MgCyp51-T10: dsRNA tile of Zymoseptoria tritici Cyp51, 172 bp, location 345-516 (nucleic acid, listed as Zymoseptoria tritici) GGACGTCAACGCGGAGGAGATATACAGCCCGCTGACCACTCCTGTCTTTGGCAAGGATGTGGTTTATGATTGTCCCAATTCGAAGCTCATGGAGCAGAAGAAGTTCGTCAAGTACGGCCTCACAACCTCTGCCCTCCAGTCCTACGTGACCTTGATCGCCGCCGAGACCCGC | <3.125 | >200 | 58 | 64 | 73 | 75 | 32.692 | >200 | 31 | 43 | 56 | 58 |
| MgCyp51-T1: dsRNA tile of Zymoseptoria tritici Cyp51, 232 bp, location 166-397 (nucleic acid, listed as Zymoseptoria tritici) GTATTCCACTGGGTGCCCTTCATCGGAAGCACCATCACATACGGCATCGACCCATACAAGTTCTTCTTCTCCTGTCGGGAAAAGTATGGAGATGTCTTTACATTCATCCTGCTGGGAAAGAAGACGACGGTGTGCTTGGGCACCAAGGGCAATGATTTTATTTTGAATGGAAAACTGAAGGACGTCAACGCGGAGGAGATATACAGCCCGCTGACCACTCCTGTCTTTGGCA | <3.125 | >200 | 65 | 68 | 70 | 77 | <3.125 | >200 | 71 | 78 | 68 | 70 |
| MgCyp51-T4: dsRNA tile of Zymoseptoria tritici Cyp51, 178 bp, location 647-824 (nucleic acid, listed as Zymoseptoria tritici) AGGGCTTCGACTCGTCTTTCGCGGACCTCTACCACTACCTCGATATGGGATTCACACCGATCAACTTTATGCTTCCGTGGGCGCCCCTTCCCCAGAACCGACGCCGCGATTATGCGCAGAAGAAGATGTCCGAGACATACATGTCGATCATTCAGAAGAGACGAGAGTCCAAAACGGG | <3.125 | 200 | 53 | 65 | 61 | 80 | <3.125 | >200 | 59 | 52 | 67 | 75 |
| MgCyp51-T13: dsRNA tile of Zymoseptoria tritici Cyp51, 119 bp, location 1517-1635 (nucleic acid, listed as Zymoseptoria tritici, long dsRNA tile, purified, chemistry not given here) ACAATGTGGATGGCAGCGACAACGTGGTGGGTACGGATTACAGCAGTTTGTTCAGCCGGCCGCTGTCGCCGGCAGTAGTAAAGTGGGAGAGGAGGGAGGAGAAGGAGGAGAAGAACTGA | <3.125 | >200 | 58 | 59 | 70 | 74 | 4.167 | >200 | 45 | 54 | 64 | 59 |
